# Experimental data reported in patent US20250283063, “NOVEL CRISPR-CAS12I SYSTEMS AND USES THEREOF” (HUIDAGENE THERAPEUTICS (SINGAPORE) PTE. LTD., published 2025).
# T1: xCas12i v5.3 (N243R,D892R)
# T1 chain: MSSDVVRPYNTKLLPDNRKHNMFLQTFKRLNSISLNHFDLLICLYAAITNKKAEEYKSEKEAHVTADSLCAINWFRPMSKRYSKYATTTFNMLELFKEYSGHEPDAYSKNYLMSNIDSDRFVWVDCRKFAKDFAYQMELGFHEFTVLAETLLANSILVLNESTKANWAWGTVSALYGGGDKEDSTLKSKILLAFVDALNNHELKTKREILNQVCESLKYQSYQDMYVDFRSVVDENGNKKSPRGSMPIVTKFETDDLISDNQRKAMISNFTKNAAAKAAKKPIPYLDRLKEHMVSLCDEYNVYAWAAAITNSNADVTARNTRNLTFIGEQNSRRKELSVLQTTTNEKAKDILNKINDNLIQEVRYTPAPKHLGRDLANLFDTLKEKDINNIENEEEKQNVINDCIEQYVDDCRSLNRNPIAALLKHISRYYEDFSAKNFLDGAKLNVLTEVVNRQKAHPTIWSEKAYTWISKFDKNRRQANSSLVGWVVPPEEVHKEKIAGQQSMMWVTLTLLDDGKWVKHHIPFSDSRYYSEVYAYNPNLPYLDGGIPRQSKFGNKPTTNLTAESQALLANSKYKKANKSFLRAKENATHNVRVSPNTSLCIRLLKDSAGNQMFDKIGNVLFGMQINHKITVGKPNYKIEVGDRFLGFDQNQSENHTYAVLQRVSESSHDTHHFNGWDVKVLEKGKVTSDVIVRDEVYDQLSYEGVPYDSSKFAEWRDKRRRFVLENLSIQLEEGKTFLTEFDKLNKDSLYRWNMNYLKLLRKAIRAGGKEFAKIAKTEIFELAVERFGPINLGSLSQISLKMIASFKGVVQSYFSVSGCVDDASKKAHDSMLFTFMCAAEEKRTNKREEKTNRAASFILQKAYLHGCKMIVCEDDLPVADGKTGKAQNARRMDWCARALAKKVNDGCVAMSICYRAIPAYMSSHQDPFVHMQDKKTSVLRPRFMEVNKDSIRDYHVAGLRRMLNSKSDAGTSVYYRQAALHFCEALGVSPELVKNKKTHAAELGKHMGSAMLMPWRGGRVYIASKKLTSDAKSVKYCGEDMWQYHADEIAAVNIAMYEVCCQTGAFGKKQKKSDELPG
# T2: hfCas12Max (v6.3) (N243R,E336R,D892R)
# T2 chain: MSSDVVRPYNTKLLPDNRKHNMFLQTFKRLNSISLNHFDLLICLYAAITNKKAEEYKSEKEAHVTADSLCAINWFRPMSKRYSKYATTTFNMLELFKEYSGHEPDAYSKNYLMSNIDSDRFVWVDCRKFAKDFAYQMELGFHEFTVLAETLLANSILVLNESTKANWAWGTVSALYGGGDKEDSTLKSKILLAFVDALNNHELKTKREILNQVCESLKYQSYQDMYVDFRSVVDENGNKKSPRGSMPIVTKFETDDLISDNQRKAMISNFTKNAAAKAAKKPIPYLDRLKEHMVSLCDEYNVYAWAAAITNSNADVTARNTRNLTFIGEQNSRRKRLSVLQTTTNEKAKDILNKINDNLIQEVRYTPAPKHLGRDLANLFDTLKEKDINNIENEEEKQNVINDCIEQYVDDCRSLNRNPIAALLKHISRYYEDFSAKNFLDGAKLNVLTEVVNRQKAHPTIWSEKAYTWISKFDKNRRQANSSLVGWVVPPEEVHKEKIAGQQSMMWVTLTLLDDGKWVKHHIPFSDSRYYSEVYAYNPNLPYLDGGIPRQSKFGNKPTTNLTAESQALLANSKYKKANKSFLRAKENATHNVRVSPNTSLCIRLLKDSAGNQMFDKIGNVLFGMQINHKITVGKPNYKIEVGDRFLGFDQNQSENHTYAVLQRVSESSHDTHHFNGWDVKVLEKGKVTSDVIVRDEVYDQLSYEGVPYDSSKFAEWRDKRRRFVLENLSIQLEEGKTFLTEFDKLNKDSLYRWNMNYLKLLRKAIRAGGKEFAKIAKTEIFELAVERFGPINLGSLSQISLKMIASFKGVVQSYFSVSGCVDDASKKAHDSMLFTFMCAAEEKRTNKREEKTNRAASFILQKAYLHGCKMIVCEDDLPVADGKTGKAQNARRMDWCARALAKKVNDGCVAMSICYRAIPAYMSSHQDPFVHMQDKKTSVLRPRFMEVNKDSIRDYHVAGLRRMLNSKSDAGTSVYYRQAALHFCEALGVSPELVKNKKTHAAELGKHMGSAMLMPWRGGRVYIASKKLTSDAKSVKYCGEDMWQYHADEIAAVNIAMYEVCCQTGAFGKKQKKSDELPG
# What was measured:
# xCas12i v5.3 = biological target: T1, xCas12i v5.3; assay: cell_activity; PAM TTTG; on-target; conditions: tags: NLS
# hfCas12Max (v6.3) = biological target: T2, hfCas12Max (v6.3); assay: cell_activity; PAM TTTG; on-target; conditions: tags: NLS
binder,measurement,setting,value
TTR.2 crRNA ; TTR ON.1 (ssRNA ; dsDNA) RNA: AUGACUCAGAAAUGUGUCCCCAGUUGACACUAGAAGGGAUAUACAAAGUGGA DNA 1: TTTGTAGAAGGGATATACAAAGTGGA DNA 2: TCCACTTTGTATATCCCTTCTACAAA,activity,xCas12i v5.3,75.8%
same,activity,hfCas12Max (v6.3),77.7%
